{
  "source": "patent US20220332804A1",
  "about": "(CSL INNOVATION, published 2022)",
  "binders": {"B1": {"name": "RF16-214 (antibody, V domains shown)", "VH": "EVQLLESGGGLVQPGGSLRLSCAASGFTFSWYQMMWVRQAPGKGLEWVSRIYPSGGGTAYADSVKGRFTISRDNSKNTLYLQMNSLRAEDTAVYYCARDAGYGDNWGQGTLVTVSS", "VL": "QSALTQPPSVSVSPGQTASITCSGDKLGEKYASWYQQKAGQSPVMVIYQDRKRPSGIPERFSGSNSGNTATLTISGTQAMDEADYYCQAWDTRAVVFGGGTKLTVLG"}},
  "assay_in_all_cases": "SPR, mAb captured, C2 mutant analyte;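 note: Anti-C2 mAbs captured on goat anti-human IgG Biacore CM5 chips, alanine or serine C2 surface mutants flowed over at 37 °C, double-referenced sensorgrams fitted to a 1:1 binding model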",
  "key": {"human C2 A326S": {"molecular_target": "T1, human C2 A326S (human, UniProt P06681 21-752)", "T1 sequence": "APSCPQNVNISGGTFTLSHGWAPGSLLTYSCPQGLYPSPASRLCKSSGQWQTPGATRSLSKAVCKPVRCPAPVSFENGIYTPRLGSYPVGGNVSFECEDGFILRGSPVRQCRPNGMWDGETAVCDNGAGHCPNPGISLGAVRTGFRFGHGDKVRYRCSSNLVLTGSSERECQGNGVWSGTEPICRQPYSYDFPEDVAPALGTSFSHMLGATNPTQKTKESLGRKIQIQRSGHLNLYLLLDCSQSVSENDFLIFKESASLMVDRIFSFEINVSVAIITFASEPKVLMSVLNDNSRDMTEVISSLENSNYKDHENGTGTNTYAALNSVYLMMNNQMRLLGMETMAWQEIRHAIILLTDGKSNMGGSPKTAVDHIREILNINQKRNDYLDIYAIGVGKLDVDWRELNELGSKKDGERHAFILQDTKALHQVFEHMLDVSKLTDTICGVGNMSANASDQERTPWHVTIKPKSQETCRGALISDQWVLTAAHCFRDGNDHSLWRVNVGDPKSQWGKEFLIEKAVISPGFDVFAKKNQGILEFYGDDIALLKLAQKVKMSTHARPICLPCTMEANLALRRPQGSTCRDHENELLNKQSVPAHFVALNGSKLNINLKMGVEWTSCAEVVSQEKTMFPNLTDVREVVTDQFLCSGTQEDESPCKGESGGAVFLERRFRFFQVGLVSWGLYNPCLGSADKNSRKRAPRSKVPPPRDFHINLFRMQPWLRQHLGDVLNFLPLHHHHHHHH"}, "human C2 E433A": {"molecular_target": "T2, human C2 E433A (human, UniProt P06681 21-752)", "T2 sequence": "T1 sequence with S306A, E413A"}, "human C2 V465A": {"molecular_target": "T3, human C2 V465A (human, UniProt P06681 21-752)", "T3 sequence": "T1 sequence with S306A, V445A"}, "human C2 G466A": {"molecular_target": "T4, human C2 G466A (human, UniProt P06681 21-752)", "T4 sequence": "T1 sequence with S306A, G446A"}},
  "note": "Where a chain is given by its changes, count along the chain named.",
  "data": [
    {"binder": "B1", "values": [
      {"measurement": "Kd", "setting": "human C2 A326S", "result": 45.5, "unit": "nM"},
      {"measurement": "Kd", "setting": "human C2 E433A", "result": 16.4, "unit": "nM"},
      {"measurement": "Kd", "setting": "human C2 V465A", "result": 72.7, "unit": "nM"},
      {"measurement": "Kd", "setting": "human C2 G466A", "result": 144, "unit": "nM"}
    ]}
  ]
}
